B1: full-length HA-epitope tagged huBUB1 (plasmid p396-1) (protein)
chain: GGGGGGMDTPENVLQMLEAHMQSYKGNDPLGEWERYIQWVEENFPENKEYLITLLEHLMKEFLDKKKYHNDPRFISYCLKFAEYNSDLHQFFEFLYNHGIGTLSSPLYIAWAGHLEAQGELQHASAVLQRGIQNQAEPREFLQQQYRLFQTRLTETHLPAQARTSEPLHNVQVLNQMITSKSNPGNNMACISKNQGSELSGVISSACDKESNMERRVITISKSEYSVHSSLASKVDVEQVVMYCKEKLIRGESEFSFEELRAQKYNQRRKHEQWVNEDRHYMKRKEANAFEEQLLKQKMDELHKKLHQVVETSHEDLPASQERSEVNPARMGPSVGSQQELRAPCLPVTYQQTPVNMEKNPREAPPVVPPLANAISAALVSPATSQSIAPPVPLKAQTVTDSMFAVASKDAGCVNKSTHEFKPQSGAEIKEGCETHKVANTSSFHTTPNTSLGMVQATPSKVQPSPTVHTKEALGFIMNMFQAPTLPDISDDKDEWQSLDQNEDAFEAQFQKNVRSSGAWGVNKIISSLSSAFHVFEDGNKENYGLPQPKNKPTGARTFGERSVSRLPSKPKEEVPHAEEFLDDSTVWGIRCNKTLAPSPKSPGDFTSAAQLASTPFHKLPVESVHILEDKENVVAKQCTQATLDSCEENMVVPSRDGKFSPIQEKSPKQALSSHMYSASLLRLSQPAAGGVLTCEAELGVEACRLTDTDAAIAEDPPDAIAGLQAEWMQMSSLGTVDAPNFIVGNPWDDKLIFKLLSGLSKPVSSYPNTFEWQCKLPAIKPKTEFQLGSKLVYVHHLLGEGAFAQVYEATQGDLNDAKNKQKFVLKVQKPANPWEFYIGTQLMERLKPSMQHMFMKFYSAHLFQNGSVLVGELYSYGTLLNAINLYKNTPEKVMPQGLVISFAMRMLYMIEQVHDCEIIHGDIKPDNFILGNGFLEQDDEDDLSAGLALIDLGQSIDMKLFPKGTIFTAKCETSGFQCVEMLSNKPWNYQIDYFGVAATVYCMLFGTYMKVKNEGGECKPEGLFRRLPHLDMWNEFFHVMLNIPDCHHLPSLDLLRQKLKKVFQQHYTNKIRALRNRLIVLLLECKRSRK
B2: wild-type huBUB1 (full-length, plasmid p385-1) (protein)
chain: MDTPENVLQMLEAHMQSYKGNDPLGEWERYIQWVEENFPENKEYLITLLEHLMKEFLDKKKYHNDPRFISYCLKFAEYNSDLHQFFEFLYNHGIGTLSSPLYIAWAGHLEAQGELQHASAVLQRGIQNQAEPREFLQQQYRLFQTRLTETHLPAQARTSEPLHNVQVLNQMITSKSNPGNNMACISKNQGSELSGVISSACDKESNMERRVITISKSEYSVHSSLASKVDVEQVVMYCKEKLIRGESEFSFEELRAQKYNQRRKHEQWVNEDRHYMKRKEANAFEEQLLKQKMDELHKKLHQVVETSHEDLPASQERSEVNPARMGPSVGSQQELRAPCLPVTYQQTPVNMEKNPREAPPVVPPLANAISAALVSPATSQSIAPPVPLKAQTVTDSMFAVASKDAGCVNKSTHEFKPQSGAEIKEGCETHKVANTSSFHTTPNTSLGMVQATPSKVQPSPTVHTKEALGFIMNMFQAPTLPDISDDKDEWQSLDQNEDAFEAQFQKNVRSSGAWGVNKIISSLSSAFHVFEDGNKENYGLPQPKNKPTGARTFGERSVSRLPSKPKEEVPHAEEFLDDSTVWGIRCNKTLAPSPKSPGDFTSAAQLASTPFHKLPVESVHILEDKENVVAKQCTQATLDSCEENMVVPSRDGKFSPIQEKSPKQALSSHMYSASLLRLSQPAAGGVLTCEAELGVEACRLTDTDAAIAEDPPDAIAGLQAEWMQMSSLGTVDAPNFIVGNPWDDKLIFKLLSGLSKPVSSYPNTFEWQCKLPAIKPKTEFQLGSKLVYVHHLLGEGAFAQVYEATQGDLNDAKNKQKFVLKVQKPANPWEFYIGTQLMERLKPSMQHMFMKFYSAHLFQNGSVLVGELYSYGTLLNAINLYKNTPEKVMPQGLVISFAMRMLYMIEQVHDCEIIHGDIKPDNFILGNGFLEQDDEDDLSAGLALIDLGQSIDMKLFPKGTIFTAKCETSGFQCVEMLSNKPWNYQIDYFGVAATVYCMLFGTYMKVKNEGGECKPEGLFRRLPHLDMWNEFFHVMLNIPDCHHLPSLDLLRQKLKKVFQQHYTNKIRALRNRLIVLLLECKRSRK

Tests used:
[1] = molecular target: wild type huBUB3 (plasmid p291-2)
Chain of wild type huBUB3 (plasmid p291-2) (chain, as listed by the source): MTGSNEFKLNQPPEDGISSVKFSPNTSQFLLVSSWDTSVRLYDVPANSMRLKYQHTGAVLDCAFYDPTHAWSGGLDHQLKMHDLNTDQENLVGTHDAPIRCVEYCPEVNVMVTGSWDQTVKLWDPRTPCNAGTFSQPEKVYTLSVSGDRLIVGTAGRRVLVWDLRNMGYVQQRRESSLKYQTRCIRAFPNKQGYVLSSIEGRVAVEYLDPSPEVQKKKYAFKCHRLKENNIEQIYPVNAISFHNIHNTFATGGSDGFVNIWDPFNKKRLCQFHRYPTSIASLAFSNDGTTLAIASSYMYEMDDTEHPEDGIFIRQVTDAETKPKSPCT

Chain of PHAS-I (Strategene) (Q60876 2-117): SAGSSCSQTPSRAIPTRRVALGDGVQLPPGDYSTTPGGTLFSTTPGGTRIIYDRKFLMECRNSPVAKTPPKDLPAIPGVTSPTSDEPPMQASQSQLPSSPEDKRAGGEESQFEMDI

| Protein | autophosphorylation of HA-huBUB1 [1] | phosphorylation of an exogenous substrate (33P-ATP kinase reaction of immunopurified FLAG-BUB3/BUB1, SDS-PAGE, autoradiography) (PHAS-I (Strategene)) |
| --- | --- | --- |
| B1 | Co-translation of huBUB3 may stimulate this autophosphorylation activity. |  |
| B2 |  | only PHAS-I demonstrated clear huBUB1-dependent activity as a kinase substrate |

— US20020123042
